Assay results reported in PMC7611325 (Molecular cell, 2021).

Target: PAF1c (Polymerase II associated factor 1 complex; CTR9, Leo1, Paf1, CDC73, WDR61) (UniProt Q6PD62;Q8WVC0;Q8N7H5;Q6P1J9;Q9GZS3)
Assay: pull-down

binding result: binds
B1: GST-MYC^1-163 (glutathione-S-transferase fusion protein that encompasses amino acids 1 to 163 of human MYC) (domain or fragment)
chain: MPLNVSFTNRNYDLDYDSVQPYFYCDEEENFYQQQQQSELQPPAPSEDIWKKFELLPTPPLSPSRRSGLCSPSYVAVTPFSLRGDNDGGGGSFSTADQLEMVTELLGGDMVNQSFICDPDDETFIKNIIIQDCMWSGFSAAAKLVSEKLASYQAARKDSGSPN
